# No end group written: not given here.
# Molecular target: T1, human ChemerinR (human, UniProt Q99788 3-373)
# T1 sequence: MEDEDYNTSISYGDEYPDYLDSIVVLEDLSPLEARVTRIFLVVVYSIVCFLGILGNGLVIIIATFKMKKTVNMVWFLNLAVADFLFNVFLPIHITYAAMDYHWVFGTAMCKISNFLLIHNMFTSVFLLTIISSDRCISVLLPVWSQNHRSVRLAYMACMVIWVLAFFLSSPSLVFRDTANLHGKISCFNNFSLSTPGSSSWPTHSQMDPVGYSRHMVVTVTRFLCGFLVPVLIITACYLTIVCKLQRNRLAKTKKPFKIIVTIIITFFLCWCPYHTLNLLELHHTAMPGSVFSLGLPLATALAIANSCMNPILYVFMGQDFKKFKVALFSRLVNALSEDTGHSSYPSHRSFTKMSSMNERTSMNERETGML
# Assay: cell-based or functional assay
row,"EC50 (nM), Calcium flux-Aequoscreen assay on ChemerinR expressing cells [nM]",Binder
1,4.3,YFPGQFAFD-NH2 [YFPGQFAFD-CONH2]
2,43.8,YVPGQFAFS

# The remaining lines, values behind:
row,Binder,"EC50 (nM), Calcium flux-Aequoscreen assay on ChemerinR expressing cells [nM]"
1,FLPGQFAFS,29.1
2,IFPGQFAFS,25.8
3,LFPGQFAFS,66.3

# Source: patent US20070238862A1 (published 2007)
